Assay results: patent US7056679 (ANTYRA, dated 2006)

T1: DGI-2 polypeptide (UniProt Q15004 1-111, limits assumed)
T1 construct: Soluble recombinant protein coated at 500 ng/well; vector tag of pIVEX2.3-MCS not described for this construct; also called KIAA0101
T1 sequence (looked up): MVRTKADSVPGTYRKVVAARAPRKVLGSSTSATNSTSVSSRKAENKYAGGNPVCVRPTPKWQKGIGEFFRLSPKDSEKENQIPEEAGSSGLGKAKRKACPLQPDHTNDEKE


molecular target: T1, DGI-2 polypeptide; assay: phage ELISA
Experimental: (§1) For analysis of individual target binders, colonies were picked and phage prepared as described above using helper phage, M13KO7. Ninety-six-well microtiter plates were coated with 500 ng/well of specific target protein, 500 ng/well lactate dehydrogenase (LDH) irrelevant or non-specific target, 500 ng/well of positive control antibody raised against ETAG, and negative control of non-fat milk powder-PBS 2% at 4° C. overnight. Plates were then blocked with 350 microliters/well PBS containing 2% non-fat milk for 1 hr at room temperature. One hundred microliters per well of phage from isolated clones were added and plates were incubated at room temperature for 2 hr after centrifuging samples for 20 minutes at 3500 rpm at 4° C. The phage solution was then removed, and the wells were washed three times with PBS at room temperature. Antibody raised against M13 conjugated to horseradish peroxidase (Pharmacia) was diluted 1:3000 in PBS-Tween and added to each well (100 µl/well). Incubation was for 1 hr at room temperature, followed by washing with PBS-(0.5%) Tween 3 times as described. Color was developed by addition of ABTS solution (100 µl/well; Boehringer, Indianapolis, Ind.). Plates were analyzed at 405 nm. A clone was considered "positive" if the $A405$ of the well was $\geq$2-fold over background.

Row | Binder | DGI-2 (OD) | DGI-2/LDH [ratio]
1 | VGQSSGDARPLANLFVFPFVAAAGAPVPYPDPLEPRP [DGI-2-20F-PP-F12] | 2.1 | 2.3
2 | EGQRVVFLFGALVAGLCWRDRAAAGAPVPYPDPLEPRP [DGI-2-20F-PP-F3] | 2.6 | 2.2
3 | PVYRVAMCRISVGCSAGAWFAAAGAPVPYPDPLEPRP [DGI-2-20F-PP-C12] | 2.5 | 2.9
4 | CYLSRLFRSGQGIGQFGHVEAAAGAPVPYPDPLEPRP [DGI-2-20F-PP-A82] | 2.5 | 2.3
5 | TFTRDVAGPAVSFVRLHSWNAAAGAPVPYPDPLEPRP [DGI-2-20F-PP-A9] | 2.7 | 2.3
6 | RRFVRCSVPVALRSAVPVSVAAAGAPVPYPDPLEPRP [DGI-2-20F-PP-A10] | 2.4 | 2.4
7 | RQRSGGRWVVDRVTRVASTSPAAAGAPVPYPDPLEPRP [DGI-2-20F-PP-B12] | 2.3 | 2.2
8 | LFRFSGTGMASLPCVGWHLVAAAGAPVPYPDPLEPRP [DGI-2-20F-PP-B6] | 2.5 | 2.6
9 | DRSRAPLCADKSGRWQRYRRAAAGAPVPYPDPLEPRP [DGI-2-20F-PP-C10] | 2.7 | 3.1
10 | WVVALRRIRLGLRRGVECLLAAAGAPVPYPDPLEPRP [DGI-2-20F-PP-D5] | 2.7 | 2.3
11 | VVGYAQGDGLEGGLGSSRDGSAAAGAPVPYPDPLEPRP [DGI-2-20F-PP-D8] | 2.3 | 2.2
12 | RVSYEMLGRRRRSMHGSSMRAAAGAPVPYPDPLEPRP [DGI-2-20F-PP-A4] | 2.7 | 2.6
13 | VQSGRDLGGLLRGGTGTEASPAAAGAPVPYPDPLEPRP [DGI-2-20F-PP-D3] | 2.2 | 2.4
14 | SVTISTSCRTGCPAGYLRRDAAAGAPVPYPDPLEPRP [DGI-2-20F-PP-D2] | 2.2 | 3.1
15 | VGHLLSRCAHHSPGMGASPYGAAAGAPVPYPDPLEPRP [DGI-2-20F-PP-B11] | 2.6 | 2.7
16 | GGSLPVKSGQLVTCCTSKGGAAAGAPVPYPDPLEPRP [DGI-2-20F-PP-F5] | 2.3 | 2.5
17 | DRHRAFVAEGLDGFRHSTGVAAAGAPVPYPDPLEPRP [DGI-2-20F-PP-D4] | 2.6 | 2.3
18 | GLYQRGLAPRCRGERFGVRNAAAGAPVPYPDPLEPRP [DGI-2-20F-PP-C2] | 2.7 | 2.5
19 | VSGVPDGSMRAAQLASGYWCAAAGAPVPYPDPLEPRP [DGI-2-20F-PP-G2] | 2.4 | 2.1
20 | SLFERSARSRYHGSPDCNGSAAAGAPVPYPDPLEPRP [DGI-2-20F-PP-A3] | 2.8 | 2.4
21 | GGDLGEQGVQLCPDVVRGGSLAAAGAPVPYPDPLEPRP [DGI-2-20F-PP-A7] | 2.6 | 2.8
22 | SVSGGGVFGTGGRVRHQVSGAAAGAPVPYPDPLEPRP [DGI-2-20F-PP-C5] | 2.2 | 2.4
23 | GSTRLRVTVRFCSETGTPGCAAAGAPVPYPDPLEPRP [DGI-2-20F-PP-G6] | 2.7 | 2.5
24 | VTGTRFRGFAVACVRMGTWHAAAGAPVPYPDPLEPRP [DGI-2-20F-PP-F2] | 2.4 | 2.5
25 | SAFGCPLPRALGGGGARFYAAAAGAPVPYPDPLEPRP [DGI-2-20F-PP-E11] | 2 | 2.2
26 | TPVAISIPAGVCSTSVCGRDAAAGAPVPYPDPLEPRP [DGI-2-20F-PP-C11] | 2.4 | 2.6
27 | SLLCVVCRPVSGGRALGGVPAAAGAPVPYPDPLEPRP [DGI-2-20F-PP-B42] | 2.4 | 2.5
28 | CCAWNGVGVGGLGWRVVVGPAAAGAPVPYPDPLEPRP [DGI-2-20F-PP-H4] | 2.1 | 2.2
29 | GASRVVDVGWRFWGKLWQRSAAAGAPVPYPDPLEPRP [DGI-2-20F-PP-G5] | 2.4 | 2

molecular target: T2, lactate dehydrogenase (LDH); assay: phage ELISA
T2 construct: Coated at 500 ng/well as non-specific target; also called LDH polypeptide
Experimental: as §1

Row | Binder | LDH (OD)
30 | VGQSSGDARPLANLFVFPFVAAAGAPVPYPDPLEPRP [DGI-2-20F-PP-F12] | 0.9
31 | EGQRVVFLFGALVAGLCWRDRAAAGAPVPYPDPLEPRP [DGI-2-20F-PP-F3] | 1.1
32 | PVYRVAMCRISVGCSAGAWFAAAGAPVPYPDPLEPRP [DGI-2-20F-PP-C12] | 0.9
33 | CYLSRLFRSGQGIGQFGHVEAAAGAPVPYPDPLEPRP [DGI-2-20F-PP-A82] | 1.1
34 | TFTRDVAGPAVSFVRLHSWNAAAGAPVPYPDPLEPRP [DGI-2-20F-PP-A9] | 1.2
35 | RRFVRCSVPVALRSAVPVSVAAAGAPVPYPDPLEPRP [DGI-2-20F-PP-A10] | 1
36 | RQRSGGRWVVDRVTRVASTSPAAAGAPVPYPDPLEPRP [DGI-2-20F-PP-B12] | 1.1
37 | LFRFSGTGMASLPCVGWHLVAAAGAPVPYPDPLEPRP [DGI-2-20F-PP-B6] | 1
38 | DRSRAPLCADKSGRWQRYRRAAAGAPVPYPDPLEPRP [DGI-2-20F-PP-C10] | 0.9
39 | WVVALRRIRLGLRRGVECLLAAAGAPVPYPDPLEPRP [DGI-2-20F-PP-D5] | 1.2
40 | VVGYAQGDGLEGGLGSSRDGSAAAGAPVPYPDPLEPRP [DGI-2-20F-PP-D8] | 1.1
41 | RVSYEMLGRRRRSMHGSSMRAAAGAPVPYPDPLEPRP [DGI-2-20F-PP-A4] | 1.1
42 | VQSGRDLGGLLRGGTGTEASPAAAGAPVPYPDPLEPRP [DGI-2-20F-PP-D3] | 0.9
43 | SVTISTSCRTGCPAGYLRRDAAAGAPVPYPDPLEPRP [DGI-2-20F-PP-D2] | 0.7
44 | VGHLLSRCAHHSPGMGASPYGAAAGAPVPYPDPLEPRP [DGI-2-20F-PP-B11] | 1
45 | GGSLPVKSGQLVTCCTSKGGAAAGAPVPYPDPLEPRP [DGI-2-20F-PP-F5] | 0.9
46 | DRHRAFVAEGLDGFRHSTGVAAAGAPVPYPDPLEPRP [DGI-2-20F-PP-D4] | 1.1
47 | GLYQRGLAPRCRGERFGVRNAAAGAPVPYPDPLEPRP [DGI-2-20F-PP-C2] | 1.1
48 | VSGVPDGSMRAAQLASGYWCAAAGAPVPYPDPLEPRP [DGI-2-20F-PP-G2] | 1.1
49 | SLFERSARSRYHGSPDCNGSAAAGAPVPYPDPLEPRP [DGI-2-20F-PP-A3] | 1.2
50 | GGDLGEQGVQLCPDVVRGGSLAAAGAPVPYPDPLEPRP [DGI-2-20F-PP-A7] | 0.9
51 | SVSGGGVFGTGGRVRHQVSGAAAGAPVPYPDPLEPRP [DGI-2-20F-PP-C5] | 0.9
52 | GSTRLRVTVRFCSETGTPGCAAAGAPVPYPDPLEPRP [DGI-2-20F-PP-G6] | 1.1
53 | VTGTRFRGFAVACVRMGTWHAAAGAPVPYPDPLEPRP [DGI-2-20F-PP-F2] | 1
54 | SAFGCPLPRALGGGGARFYAAAAGAPVPYPDPLEPRP [DGI-2-20F-PP-E11] | 0.9
55 | TPVAISIPAGVCSTSVCGRDAAAGAPVPYPDPLEPRP [DGI-2-20F-PP-C11] | 0.9
56 | SLLCVVCRPVSGGRALGGVPAAAGAPVPYPDPLEPRP [DGI-2-20F-PP-B42] | 1
57 | CCAWNGVGVGGLGWRVVVGPAAAGAPVPYPDPLEPRP [DGI-2-20F-PP-H4] | 1
58 | GASRVVDVGWRFWGKLWQRSAAAGAPVPYPDPLEPRP [DGI-2-20F-PP-G5] | 1.2

molecular target: T3, antibody raised against ETAG; assay: phage ELISA
T3 construct: Coated at 500 ng/well; also called E-tag antibody
Experimental: as §1

Row | Binder | ETAG (OD)
59 | VGQSSGDARPLANLFVFPFVAAAGAPVPYPDPLEPRP [DGI-2-20F-PP-F12] | 47.6
60 | EGQRVVFLFGALVAGLCWRDRAAAGAPVPYPDPLEPRP [DGI-2-20F-PP-F3] | 18.7
61 | PVYRVAMCRISVGCSAGAWFAAAGAPVPYPDPLEPRP [DGI-2-20F-PP-C12] | 36.4
62 | CYLSRLFRSGQGIGQFGHVEAAAGAPVPYPDPLEPRP [DGI-2-20F-PP-A82] | 16.5
63 | TFTRDVAGPAVSFVRLHSWNAAAGAPVPYPDPLEPRP [DGI-2-20F-PP-A9] | 40.8
64 | RRFVRCSVPVALRSAVPVSVAAAGAPVPYPDPLEPRP [DGI-2-20F-PP-A10] | 16.3
65 | RQRSGGRWVVDRVTRVASTSPAAAGAPVPYPDPLEPRP [DGI-2-20F-PP-B12] | 1.9
66 | LFRFSGTGMASLPCVGWHLVAAAGAPVPYPDPLEPRP [DGI-2-20F-PP-B6] | 37
67 | DRSRAPLCADKSGRWQRYRRAAAGAPVPYPDPLEPRP [DGI-2-20F-PP-C10] | 8.6
68 | WVVALRRIRLGLRRGVECLLAAAGAPVPYPDPLEPRP [DGI-2-20F-PP-D5] | 33.6
69 | VVGYAQGDGLEGGLGSSRDGSAAAGAPVPYPDPLEPRP [DGI-2-20F-PP-D8] | 2.6
70 | RVSYEMLGRRRRSMHGSSMRAAAGAPVPYPDPLEPRP [DGI-2-20F-PP-A4] | 6.6
71 | VQSGRDLGGLLRGGTGTEASPAAAGAPVPYPDPLEPRP [DGI-2-20F-PP-D3] | 15
72 | SVTISTSCRTGCPAGYLRRDAAAGAPVPYPDPLEPRP [DGI-2-20F-PP-D2] | 30.8
73 | VGHLLSRCAHHSPGMGASPYGAAAGAPVPYPDPLEPRP [DGI-2-20F-PP-B11] | 40.8
74 | GGSLPVKSGQLVTCCTSKGGAAAGAPVPYPDPLEPRP [DGI-2-20F-PP-F5] | 16.3
75 | DRHRAFVAEGLDGFRHSTGVAAAGAPVPYPDPLEPRP [DGI-2-20F-PP-D4] | 44
76 | GLYQRGLAPRCRGERFGVRNAAAGAPVPYPDPLEPRP [DGI-2-20F-PP-C2] | 6
77 | VSGVPDGSMRAAQLASGYWCAAAGAPVPYPDPLEPRP [DGI-2-20F-PP-G2] | 5.6
78 | SLFERSARSRYHGSPDCNGSAAAGAPVPYPDPLEPRP [DGI-2-20F-PP-A3] | 12.9
79 | GGDLGEQGVQLCPDVVRGGSLAAAGAPVPYPDPLEPRP [DGI-2-20F-PP-A7] | 42.2
80 | SVSGGGVFGTGGRVRHQVSGAAAGAPVPYPDPLEPRP [DGI-2-20F-PP-C5] | 33.9
81 | GSTRLRVTVRFCSETGTPGCAAAGAPVPYPDPLEPRP [DGI-2-20F-PP-G6] | 36.1
82 | VTGTRFRGFAVACVRMGTWHAAAGAPVPYPDPLEPRP [DGI-2-20F-PP-F2] | 1.9
83 | SAFGCPLPRALGGGGARFYAAAAGAPVPYPDPLEPRP [DGI-2-20F-PP-E11] | 15.2
84 | TPVAISIPAGVCSTSVCGRDAAAGAPVPYPDPLEPRP [DGI-2-20F-PP-C11] | 3.2
85 | SLLCVVCRPVSGGRALGGVPAAAGAPVPYPDPLEPRP [DGI-2-20F-PP-B42] | 21.5
86 | CCAWNGVGVGGLGWRVVVGPAAAGAPVPYPDPLEPRP [DGI-2-20F-PP-H4] | 32.9
87 | GASRVVDVGWRFWGKLWQRSAAAGAPVPYPDPLEPRP [DGI-2-20F-PP-G5] | 27.7
